Molecular target: the molecule itself
Test: SEC; Superdex 200 Increase 10/300; 100 mM Tris-HCl pH 8.5, 150 mM NaCl, 1 mM DTT, 5% glycerol; 0.4 mL/min; His-tag fusion proteins

B1: 6His-AtFH2-FH2 (domain or fragment, Arabidopsis thaliana, UniProt O22824 438-864, looked up)
chain: EKKVETMKPKLKTLHWDKVRASSSRVMVWDQIKSNSFQVNEEMIETLFKVNDPTSRTRDGVVQSVSQENRFLDPRKSHNIAILLRALNVTADEVCEALIEGNSDTLGPELLECLLKMAPTKEEEDKLKELKDDDDGSPSKIGPAEKFLKALLNIPFAFKRIDAMLYIVKFESEIEYLNRSFDTLEAATGELKNTRMFLKLLEAVLKTGNRMNIGTNRGDAHAFKLDTLLKLVDIKGADGKTTLLHFVVQEIIKFEGARVPFTPSQSHIGDNMAEQSAFQDDLELKKLGLQVVSGLSSQLINVKKAAAMDSNSLINETAEIARGIAKVKEVITELKQETGVERFLESMNSFLNKGEKEITELQSHGDNVMKMVKEVTEYFHGNSETHPFRIFAVVRDFLTILDQVCKEVGRVNERTVYGSMPLHSPSN
notes: Arabidopsis thaliana Formin 2 (AtFH2, At2g43800), FH2 domain; cloned in pET23a; Mainly a dimer by size exclusion chromatography (about 100 kDa); source: E. coli Tuner (DE3) pLysS, purified (Ni-NTA)
  stoichiometry N: 2

Reference: paper PMC6126924, “Arabidopsis formin 2 regulates cell-to-cell trafficking by capping and stabilizing actin filaments at plasmodesmata” (eLife, 2018)
